T1: MT1-MMP specific fluorogenic substrate MCA-Pro-Leu-Ala-Cys(p-OmeBz)-Trp-Ala-Arg(Dpa)-NH2
T1 chain: PLACWAR

B1: MMP-2 (part of MMP-2/9, Chemicon) (protein)
chain: YNFFPRKPKWDKNQITYRIIGYTPDLDPETVDDAFARAFQVWSDVTPLRFSRIHDGEADIMINFGRWEHGDGYPFDGKDGLLAHAFAPGTGVGGDSHFDDDELWTLGEGQVVRVKYGNADGEYCKFPFLFNGKEYNSCTDTGRSDGFLWCSTTYNFEKDGKYGFCPHEALFTMGGNAEGQPCKFPFRFQGTSYDSCTTEGRTDGYRWCGTTEDYDRDKKYGFCPETAMSTVGGNSEGAPCVFPFTFLGNKYESCTSAGRSDGKMWCATTANYDDDRKWGFCPDQGYSLFLVAAHEFGHAMGLEHSQDPGALMAPIYTYTKNFRLSQDDIKGIQELYGASPDIDLGTGPTPTLGPVTPEICKQDIVFDGIAQIRGEIFFFKDRFIWRTVTPRDKPMGPLLVATFWPELPEKIDAVYEAPQEEKAVFFAGNEYWIYSASTLERGYPKPLTSLGLPPDVQRVDAAFNWSKNKKTYIFAGDKFWRYNEVKKKMDPGFPKLIADAWNAIPDNLDAVVDLQGGGHSYFFKGAYYLKLENQSLKSVKFGSIKSDWLGC
B2: a disintegrin and metalloproteinase (ADAM)-10 (R&D Systems) (protein)
chain: TTSAEKNTCQLYIQTDHLFFKYYGTREAVIAQISSHVKAIDTIYQTTDFSGIRNISFMVKRIRINTTADEKDPTNPFRFPNIGVEKFLELNSEQNHDDYCLAYVFTDRDFDDGVLGLAWVGAPSGSSGGICEKSKLYSDGKKKSLNTGIITVQNYGSHVPPKVSHITFAHEVGHNFGSPHDSGTECTPGESKNLGQKENGNYIMYARATSGDKLNNNKFSLCSIRNISQVLEKKRNNCFVESGQPICGNGMVEQGEECDCGYSDQCKDECCFDANQPEGRKCKLKPGKQCSPSQGPCCTAQCAFKSKSEKCRDDSDCAREGICNGFTALCPASDPKPNFTDCNRHTQVCINGQCAGSICEKYGLEECTCASSDGKDDKELCHVCCMKKMDPSTCASTGSVQWSRHFSGRTITLQPGSPCNDFRGYCDVFMRCRLVDADGPLARLKKAIFSPELYENIAE

Molecular target: T1, MT1-MMP specific fluorogenic substrate …

Protein	fluorescence emission (cleavage of the quenched fluorogenic substrate)
B1	Incubation with MMP-2/9, MMP-8, or ADAM-10 and 17 alone failed to cause fluorescence emission from the MT1-MMP substrate.
B2	Incubation with MMP-2/9, MMP-8, or ADAM-10 and 17 alone failed to cause fluorescence emission from the MT1-MMP substrate.

— patent publication US20100016697
